# Test results: patent publication US20220017591A1 (AstraZeneca / MedImmune, published 2022)
# Positions count from the first letter of the chain named.
# T1: mouse RXFP1 (mouse, UniProt Q6R6I7 1-758)
# T1 sequence (looked up): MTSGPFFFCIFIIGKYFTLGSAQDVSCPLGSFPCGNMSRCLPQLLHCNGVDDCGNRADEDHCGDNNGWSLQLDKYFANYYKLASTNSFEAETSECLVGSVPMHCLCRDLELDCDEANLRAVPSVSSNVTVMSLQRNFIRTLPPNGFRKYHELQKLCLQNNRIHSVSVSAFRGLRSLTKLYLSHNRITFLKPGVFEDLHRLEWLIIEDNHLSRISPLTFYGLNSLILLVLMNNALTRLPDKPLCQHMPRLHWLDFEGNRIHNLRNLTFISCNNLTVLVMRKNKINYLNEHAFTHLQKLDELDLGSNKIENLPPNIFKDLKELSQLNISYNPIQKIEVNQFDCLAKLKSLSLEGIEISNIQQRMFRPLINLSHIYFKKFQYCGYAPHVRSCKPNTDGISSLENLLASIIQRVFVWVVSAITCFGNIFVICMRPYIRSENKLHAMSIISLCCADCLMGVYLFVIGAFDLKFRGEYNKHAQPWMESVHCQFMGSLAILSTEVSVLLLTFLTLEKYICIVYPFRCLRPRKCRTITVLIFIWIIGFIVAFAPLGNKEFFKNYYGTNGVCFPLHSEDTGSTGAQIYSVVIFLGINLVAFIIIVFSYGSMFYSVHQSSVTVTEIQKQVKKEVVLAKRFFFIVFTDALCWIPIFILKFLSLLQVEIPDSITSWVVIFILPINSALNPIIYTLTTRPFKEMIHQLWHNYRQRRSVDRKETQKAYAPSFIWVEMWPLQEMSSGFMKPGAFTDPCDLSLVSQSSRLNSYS
# T2: human RXFP1 (human, UniProt Q9HBX9 1-757)
# T2 sequence (looked up): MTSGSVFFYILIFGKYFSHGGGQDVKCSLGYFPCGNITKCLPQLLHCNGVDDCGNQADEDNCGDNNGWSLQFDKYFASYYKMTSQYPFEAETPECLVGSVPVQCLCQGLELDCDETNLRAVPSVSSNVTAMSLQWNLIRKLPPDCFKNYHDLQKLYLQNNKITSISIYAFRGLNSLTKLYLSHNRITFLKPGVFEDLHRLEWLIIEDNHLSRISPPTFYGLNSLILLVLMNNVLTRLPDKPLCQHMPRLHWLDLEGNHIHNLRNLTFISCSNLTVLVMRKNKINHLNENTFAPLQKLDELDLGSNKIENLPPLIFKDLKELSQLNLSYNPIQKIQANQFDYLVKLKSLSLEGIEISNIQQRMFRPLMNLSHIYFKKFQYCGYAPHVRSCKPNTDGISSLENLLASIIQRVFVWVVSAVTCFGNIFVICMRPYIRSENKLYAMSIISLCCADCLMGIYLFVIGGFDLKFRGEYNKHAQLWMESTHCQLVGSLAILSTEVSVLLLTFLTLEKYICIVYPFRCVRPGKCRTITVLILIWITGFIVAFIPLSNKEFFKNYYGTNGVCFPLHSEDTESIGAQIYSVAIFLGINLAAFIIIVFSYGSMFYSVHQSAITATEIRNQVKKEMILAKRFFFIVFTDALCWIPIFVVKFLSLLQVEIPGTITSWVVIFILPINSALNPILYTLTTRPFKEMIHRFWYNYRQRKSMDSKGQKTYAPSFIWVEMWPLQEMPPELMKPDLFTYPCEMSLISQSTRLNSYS
# B1: RELAX0081 (Fc fusion)
# chain 1: DKTHTCPPCPAPEFEGGPSVFLFPPKPKDTLMISRTPEVTCVVVDVSHEDPEVKFNWYVDGVEVHNAKTKPREEQYNSTYRVVSVLTVLHQDWLNGKEYKCKVSNKALPASIEKTISKAKGQPREPQVYTLPPCREEMTKNQVSLWCLVKGFYPSDIAVEWESNGQPENNYKTTPPVLDSDGSFFLYSKLTVDKSRWQQGNVFSCSVMHEALHNHYTQKSLSLSPGGGGGSGGGGSGGGGGSQLYSALANKCCHVGCTKRSLARFC
# chain 2: DKTHTCPPCPAPEFEGGPSVFLFPPKPKDTLMISRTPEVTCVVVDVSHEDPEVKFNWYVDGVEVHNAKTKPREEQYNSTYRVVSVLTVLHQDWLNGKEYKCKVSNKALPASIEKTISKAKGQPREPQVCTLPPSREEMTKNQVSLSCAVKGFYPSDIAVEWESNGQPENNYKTTPPVLDSDGSFFLVSKLTVDKSRWQQGNVFSCSVMHEALHNHYTQKSLSLSPGGGGGSGGGGSGGGGGSSWMEEVIKLCGRELVRAQIAICGMSTWS
# B2: RELAX0082 (Fc fusion)
# chain 1: DKTHTCPPCPAPEFEGGPSVFLFPPKPKDTLMISRTPEVTCVVVDVSHEDPEVKFNWYVDGVEVHNAKTKPREEQYNSTYRVVSVLTVLHQDWLNGKEYKCKVSNKALPASIEKTISKAKGQPREPQVYTLPPCREEMTKNQVSLWCLVKGFYPSDIAVEWESNGQPENNYKTTPPVLDSDGSFFLYSKLTVDKSRWQQGNVFSCSVMHEALHNHYTQKSLSLSPGGGGGSGGGGGSQLYSALANKCCHVGCTKRSLARFC
# chain 2: DKTHTCPPCPAPEFEGGPSVFLFPPKPKDTLMISRTPEVTCVVVDVSHEDPEVKFNWYVDGVEVHNAKTKPREEQYNSTYRVVSVLTVLHQDWLNGKEYKCKVSNKALPASIEKTISKAKGQPREPQVCTLPPSREEMTKNQVSLSCAVKGFYPSDIAVEWESNGQPENNYKTTPPVLDSDGSFFLVSKLTVDKSRWQQGNVFSCSVMHEALHNHYTQKSLSLSPGGGGGSGGGGGSSWMEEVIKLCGRELVRAQIAICGMSTWS
# B3: RELAX0083 (Fc fusion)
# chain 1: DKTHTCPPCPAPEFEGGPSVFLFPPKPKDTLMISRTPEVTCVVVDVSHEDPEVKFNWYVDGVEVHNAKTKPREEQYNSTYRVVSVLTVLHQDWLNGKEYKCKVSNKALPASIEKTISKAKGQPREPQVYTLPPCREEMTKNQVSLWCLVKGFYPSDIAVEWESNGQPENNYKTTPPVLDSDGSFFLYSKLTVDKSRWQQGNVFSCSVMHEALHNHYTQKSLSLSPGGGGGGSQLYSALANKCCHVGCTKRSLARFC
# chain 2: DKTHTCPPCPAPEFEGGPSVFLFPPKPKDTLMISRTPEVTCVVVDVSHEDPEVKFNWYVDGVEVHNAKTKPREEQYNSTYRVVSVLTVLHQDWLNGKEYKCKVSNKALPASIEKTISKAKGQPREPQVCTLPPSREEMTKNQVSLSCAVKGFYPSDIAVEWESNGQPENNYKTTPPVLDSDGSFFLVSKLTVDKSRWQQGNVFSCSVMHEALHNHYTQKSLSLSPGGGGGGSSWMEEVIKLCGRELVRAQIAICGMSTWS
# B4: RELAX0056 (Fc fusion)
# chain 1: DKTHTCPPCPAPEFEGGPSVFLFPPKPKDTLMISRTPEVTCVVVDVSHEDPEVKFNWYVDGVEVHNAKTKPREEQYNSTYRVVSVLTVLHQDWLNGKEYKCKVSNKALPASIEKTISKAKGQPREPQVYTLPPCREEMTKNQVSLWCLVKGFYPSDIAVEWESNGQPENNYKTTPPVLDSDGSFFLYSKLTVDKSRWQQGNVFSCSVMHEALHNHYTQKSLSLSPGAPAPAPAPAPAPAPAPAPAGSQLYSALANKCCHVGCTKRSLARFC
# chain 2: DKTHTCPPCPAPEFEGGPSVFLFPPKPKDTLMISRTPEVTCVVVDVSHEDPEVKFNWYVDGVEVHNAKTKPREEQYNSTYRVVSVLTVLHQDWLNGKEYKCKVSNKALPASIEKTISKAKGQPREPQVCTLPPSREEMTKNQVSLSCAVKGFYPSDIAVEWESNGQPENNYKTTPPVLDSDGSFFLVSKLTVDKSRWQQGNVFSCSVMHEALHNHYTQKSLSLSPGAPAPAPAPAPAPAPAPAPAGSSWMEEVIKLCGRELVRAQIAICGMSTWS
# B5: RELAX0054 (Fc fusion)
# chain 1: DKTHTCPPCPAPEFEGGPSVFLFPPKPKDTLMISRTPEVTCVVVDVSHEDPEVKFNWYVDGVEVHNAKTKPREEQYNSTYRVVSVLTVLHQDWLNGKEYKCKVSNKALPASIEKTISKAKGQPREPQVCTLPPSREEMTKNQVSLSCAVKGFYPSDIAVEWESNGQPENNYKTTPPVLDSDGSFFLVSKLTVDKSRWQQGNVFSCSVMHEALHNHYTQKSLSLSPGAAPAPAPAPAPAPAGSQLYSALANKCCHVGCTKRSLARFC
# chain 2: DKTHTCPPCPAPEFEGGPSVFLFPPKPKDTLMISRTPEVTCVVVDVSHEDPEVKFNWYVDGVEVHNAKTKPREEQYNSTYRVVSVLTVLHQDWLNGKEYKCKVSNKALPASIEKTISKAKGQPREPQVYTLPPCREEMTKNQVSLWCLVKGFYPSDIAVEWESNGQPENNYKTTPPVLDSDGSFFLYSKLTVDKSRWQQGNVFSCSVMHEALHNHYTQKSLSLSPGAAPAPAPAPAPAPAGSSWMEEVIKLCGRELVRAQIAICGMSTWS
# B6: RELAX0055 (Fc fusion)
# chain 1: B2 chain 1 with G227A, G228P, G229A, G230P, S231A, G232P, G233A, G234P, G235A
# chain 2: B2 chain 2 with G227A, G228P, G229A, G230P, S231A, G232P, G233A, G234P, G235A
# B7: RELAX0109 (Fc fusion)
# chain 1: B1 chain 1
# chain 2: B5 chain 2
# Biological target: T1, mouse RXFP1
# Experiment: cell-based or functional assay
row,Binder,"EC50 mRXFP1 (M), cAMP assay [M]"
1,B1,4.73e-11
2,B2,4.9e-11
3,B3,1.34e-11
4,B4,3.27e-11
5,B5,1.59e-11
6,B6,1.51e-11
7,B7,8.22e-10

# Biological target: human RXFP2 (human, UniProt Q8WXD0 1-754)
# Experiment: cell-based or functional assay
# Chain of human RXFP2 (Q8WXD0 whole entry): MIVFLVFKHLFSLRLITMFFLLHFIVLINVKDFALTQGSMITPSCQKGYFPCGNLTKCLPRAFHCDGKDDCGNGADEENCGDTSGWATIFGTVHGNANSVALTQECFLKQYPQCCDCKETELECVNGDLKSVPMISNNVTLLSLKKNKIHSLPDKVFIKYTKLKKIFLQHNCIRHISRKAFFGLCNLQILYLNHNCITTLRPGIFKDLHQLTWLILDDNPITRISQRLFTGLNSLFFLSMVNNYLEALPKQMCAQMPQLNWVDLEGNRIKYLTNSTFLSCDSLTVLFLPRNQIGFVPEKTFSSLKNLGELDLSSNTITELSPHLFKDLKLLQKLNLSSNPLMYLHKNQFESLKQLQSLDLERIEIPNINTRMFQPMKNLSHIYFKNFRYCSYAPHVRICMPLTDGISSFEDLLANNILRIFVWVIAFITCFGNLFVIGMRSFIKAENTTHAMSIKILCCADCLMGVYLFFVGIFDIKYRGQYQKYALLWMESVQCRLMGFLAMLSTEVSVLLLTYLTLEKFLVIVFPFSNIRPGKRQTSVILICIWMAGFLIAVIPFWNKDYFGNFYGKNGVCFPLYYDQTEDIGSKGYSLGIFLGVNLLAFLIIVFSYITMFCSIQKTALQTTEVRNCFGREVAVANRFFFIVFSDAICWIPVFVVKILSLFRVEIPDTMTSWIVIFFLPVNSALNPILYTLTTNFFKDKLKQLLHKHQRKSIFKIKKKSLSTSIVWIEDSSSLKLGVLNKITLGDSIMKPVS
row,Binder,"EC50 hRXFP2 (M), cAMP assay [M]"
1,B1,4.92e-08
2,B2,3.81e-08
3,B3,2.42e-08
4,B4,6.48e-08
5,B5,1.53e-08
6,B6,3.39e-08

# Biological target: T2, human RXFP1
# Experiment: cell-based or functional assay
row,Binder,"EC50 hRXFP1 (M), cAMP assay [M]"
1,B1,4.51e-11
2,B2,5.68e-11
3,B3,2.81e-11
4,B4,3.87e-11
5,B5,2.89e-11
6,B6,1.88e-11
7,B7,1.72e-09
